The series has as its target PgMYB2 (TF fusion) (Panax ginseng, UniProt A0A1Z1CH15 1-280). As to the kind of experiment: EMSA; LightShift Chemiluminescent EMSA kit protocol, room temperature, 20 min, native PAGE; protein stored in 20 mM Tris-HCl pH 7.2; binding buffer not stated. The note with it: protein: recombinant; tags: N-terminal trigger factor (TF) + 6xHis (pCold/TF); label: biotin; blunt. In general terms: A gel shift assay detects complexes by their altered migration in electrophoresis.

Data on one molecule can be found in publication PMC6539309, “PgMYB2, a MeJA-Responsive Transcription Factor, Positively Regulates the Dammarenediol Synthase Gene Expression in Panax Ginseng”.

PgMYB2 (TF fusion), sequence (A0A1Z1CH15 entry or part of it): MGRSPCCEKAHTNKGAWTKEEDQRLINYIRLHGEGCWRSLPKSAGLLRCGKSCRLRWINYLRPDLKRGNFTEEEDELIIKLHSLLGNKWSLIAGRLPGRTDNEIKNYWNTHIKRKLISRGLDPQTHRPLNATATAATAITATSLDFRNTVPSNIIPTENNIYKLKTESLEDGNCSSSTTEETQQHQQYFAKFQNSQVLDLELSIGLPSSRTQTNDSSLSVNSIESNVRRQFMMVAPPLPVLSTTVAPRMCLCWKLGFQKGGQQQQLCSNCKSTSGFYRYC

B1: MBSII probe (dsDNA)
DNA 1: GACTGGCATTGATTTAAAAGGCGGT
DNA 2: ACCGCCTTTTAAATCAATGCCAGTC
Turning to B1, the binding result was “binds”.
